# B1: PP_4975 (Pseudomonas putida KT2440) (protein)
# chain: MNFHTRKWVKPEDLNPNGTLFGGSLLRWIDEEAAIYAIVQLGNQRVVTKYMSEINFVSASRQGDIIELGITATAFGRTSITLKCEVRNKITRKSILTVDKMVFVNLGEDGLPAAHGRTEIKYVQDQFPDSAVE
# B2: HiYciA (Haemophilus influenzae Rd KW20) (protein)
# chain: MSANFTDKNGRQSKGVLLLRTLAMPSDTNANGDIFGGWIMSQMDMGGAILAKEIAHGRVVTVAVESMNFIKPISVGDVVCCYGQCLKVGRSSIKIKVEVWVKKVASEPIGERYCVTDAVFTFVAVDNNGRSRTIPRENNQELEKALALISEQPL
# Substrate: CCC(=O)SCCNC(=O)CCNC(=O)[C@H](O)C(C)(C)COP(=O)(O)OP(=O)(O)OC[C@H]1O[C@@H](n2cnc3c(N)ncnc32)[C@H](O)[C@@H]1OP(=O)(O)O
# Experiment: purified protein
# Conditions: hydrolysis of propionyl-CoA to propionate; conditions only in supplement
Protein,Km [µM],kcat [s⁻¹],kcat/Km [M⁻¹ s⁻¹]
B1,144.13,1300,9.02e+06
B2,26.84,490,1.83e+07

# Reference: publication PMC8085926
